Experimental data reported in patent US11015206B2, “Compositions and methods comprising sequences having hydroxyphenylpyruvate dioxygenase (HPPD) activity” (PIONEER HI-BRED INTERNATIONAL, INC., priority 2014, dated 2021).

B1: Z. mays wt: maize wild-type HPPD, SEQ ID NO:1 (glycine for proline at position 2) (protein)
chain: MGPTPTAAAAGAAVAAASAAEQAAFRLVGHRNFVRFNPRSDRFHTLAFHHVELWCADAASAAGRFSFGLGAPLAARSDLSTGNSAHASLLLRSGSLSFLFTAPYAHGADAATAALPSFSAAAARRFAADHGLAVRAVALRVADAEDAFRASVAAGARPAFGPVDLGRGFRLAEVELYGDVVLRYVSYPDGAAGEPFLPGFEGVASPGAADYGLSRFDHIVGNVPELAPAAAYFAGFTGFHEFAEFTTEDVGTAESGLNSMVLANNSENVLLPLNEPVHGTKRRSQIQTFLDHHGGPGVQHMALASDDVLRTLREMQARSAMGGFEFMAPPTSDYYDGVRRRAGDVLTEAQIKECQELGVLVDRDDQGVLLQIFTKPVGDRPTLFLEIIQRIGCMEKDEKGQEYQKGGCGGFGKGNFSQLFKSIEDYEKSLEAKQAAAAAAAQGS
modifications: Zea mays
B2: R7-9070: shuffled maize HPPD, Round 7, variant 9070 (SEQ ID NO:2); backbone for saturation mutagenesis (protein)
chain: MGPTPTATAAGAAVAAASAAEQAAFRLVGHRNFVRFNPRSDRFQTLAFHHVELWCADAASAAGRFSFALGVPLAARSDLSTGNSAHASLLLRSGSLSLLFTAPYAHGADAATAALPSFSAAAARRFAADHGLAVRAVALRVADAEDAFRASVAAGARPAFGPVDLGRGFRLAEVELYGDVVLRYVSYPDGAAGEPFLPGFEGVASPGAADYGLSRFDHIVGNVPELAPAAAYMAGFTGFHEFAEFTTEDVGTTESGLNSMALANNSENVLLPLNEPVHGTKRRSQIQTFLDHHGGPGVQHIALASDDVLRTLREMRARSAMGGFEFLPPPLSDYYDGVRRCAGDVLTEAQINECQELGVMVDRDDQGVLLQIFTKPVGDRPTFFLEIIQRIGCMEKDEKGQEYQKGGCGGFGKGNFGQLFKSIEDYEKSLEAKQAAAAATAQGS
modifications: Zea mays variant form created by artificial means.
notes: backbone for saturation mutagenesis
B3: P056028-G-01 (protein)
chain: MGPTPTATAAGAAVAAASAAEQAAFRLVGHRNFVRFNPRSDRFQTLAFHHVELWCADAASAAGRFSFALGVPLAARSDLSTGNSAHASLLLRSGSLSLLFTAPYAHGADAATAALPSFSAAAARRFAADHGLAVRAVALRVADAEDAFRASVAAGARPAFGPVDLGRGFRLAEVELYGDVVLRYVSYPDGAAGEPFLPGFEGVASPGAADLGLNRFDHIVGNVPELAPAAAYMAGFTGFHEFAEFTTEDVGTTESGLNSMALANNSENVLLPLNEPVHGTKRRSQIQTFLDHHGGPGVQHIALASDDVLRTLREMRARSAMGGFEFLPPPLSDYYDGVRKCAGDVLTEAQINECQELGVMVDRDDEGVLLQIFTKPVGDRPTFFLEIIQRIGCMEKDEKGQEYQKGGCGGFGKGNFGQLFKSIEDYEKSLEKKRAAAAATAQGS
modifications: Zea mays variant form created by artificial means.
B4: P056028-G-01R (protein)
chain: MGPTPTATAAGAAVAAASAAEQAAFRLVGHRNFVRFNPRSDRFQTLAFHHVELWCADAASAAGRFSFALGVPLAARSDLSTGNSAHASLLLRSGSLSLLFTAPYAHGADAATAALPSFSAAAARRFAADHGLAVRAVALRVADAEDAFRASVAAGARPAFGPVDLGRGFRLAEVELYGDVVLRYVSYPDGAAGEPFLPGFEGVASPGAADLGLNRFDHIVGNVPELAPAAAYMAGFTGFHEFAEFTTEDVGTTESGLNSMALANNSENVLLPLNEPVHGTKRRSQIQTFLDHHGGPGVQHIALASDDVLRTLREMRARSAMGGFEFLPPPLSDYYDGVRKCAGDVLTEAQINECQELGVMVDRDDEGVLLQIFTKPVGDRPTFFLEIIQRIGCREKDEKGQEYQKGGCGGFGKGNFGQLFKSIEDYEKSLEKKRAAAAATAQGS
modifications: Zea mays variant form created by artificial means.

Tests used:
[1] = test system: 4-hydroxyphenylpyruvate dioxygenase (HPPD); test: OFF rate ratio: release of inhibitor from pre-formed enzyme-inhibitor complex; type: biochemical, Z. mays; settings: for OFF ratio (parameters with tembotrione): Table 5; for Insensitivity, isoxaflutole (DKN), Rate ratio OFF: inhibitor diketonitrile form of isoxaflutole (DKN); for Insensitivity, mesotrione, Rate ratio OFF: inhibitor mesotrione; for Insensitivity, sulcotrione, Rate ratio OFF: inhibitor sulcotrione; for Insensitivity, tembotrione, Rate ratio OFF: inhibitor tembotrione; for Insensitivity, topramezone, Rate ratio OFF: inhibitor topramezone
In short: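 Inhibitor release from pre-formed complex (enzyme 7.2 μM, inhibitor 8 μM, 1 h RT) tracked as accelerating HPPD activity at 320 nm over 12 min, coupled via 50 nM HGD with 100 μM HPP at pH 7. OFF rate ratio: steady-state velocity relative to uninhibited initial velocity.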

[2] = test system: 4-hydroxyphenylpyruvate dioxygenase (HPPD); test: Insensitivity parameter (ON × OFF) and trait fitness (ON × OFF × kcat/KM or × kcat); type: biochemical, Z. mays; set-up: key to ON × OFF / Insensitivity, mesotrione, ON × OFF / Insensitivity, tembotrione, ON × OFF / Insensitivity, topramezone, ON × OFF / Insensitivity, sulcotrione, ON × OFF / Insensitivity, isoxaflutole (DKN), ON × OFF: insensitivity = ON rate ratio × OFF rate ratio (surrogate for KD); settings: for ON × OFF × kcat, Value / ON × OFF × kcat, Fold vs wt / ON × OFF, fold vs wt / ON × OFF (parameters with tembotrione): Table 5; for ON × OFF × kcat, Fold vs wt / ON × OFF, fold vs wt: fold vs maize wild type HPPD; for ON × OFF (parameters with tembotrione): insensitivity parameter; for Insensitivity, isoxaflutole (DKN), ON × OFF / Insensitivity, isoxaflutole (DKN), Trait fitness: inhibitor diketonitrile form of isoxaflutole (DKN); for Insensitivity, mesotrione, ON × OFF / Insensitivity, mesotrione, Trait Fitness: inhibitor mesotrione; for Insensitivity, sulcotrione, ON × OFF / Insensitivity, sulcotrione, Trait fitness: inhibitor sulcotrione; for Insensitivity, tembotrione, ON × OFF / Insensitivity, tembotrione, Trait fitness: inhibitor tembotrione; for Insensitivity, topramezone, ON × OFF / Insensitivity, topramezone, Trait Fitness: inhibitor topramezone
In short: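 Trait fitness combines catalysis and insensitivity as kcat/KM × ON rate ratio × OFF rate ratio. The insensitivity parameter is the product of ON and OFF rate ratios, used in place of KD because the ON rate ratio is inverse.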

[3] = DKN (diketonitrile form of isoxaflutole)
[4] = Table 7, tembotrione, combinatorial variants

Molecule | Insensitivity, isoxaflutole (DKN), Rate ratio OFF [1] | Insensitivity, mesotrione, Rate ratio OFF [1] | Insensitivity, sulcotrione, Rate ratio OFF [1] | Insensitivity, tembotrione, Rate ratio OFF [1] | Insensitivity, topramezone, Rate ratio OFF [1] | Insensitivity, isoxaflutole (DKN), ON × OFF [2] | Insensitivity, isoxaflutole (DKN), Trait fitness [2] | Insensitivity, mesotrione, ON × OFF [2] | Insensitivity, mesotrione, Trait Fitness [2] | Insensitivity, sulcotrione, ON × OFF [2] | Insensitivity, sulcotrione, Trait fitness [2] | Insensitivity, tembotrione, ON × OFF [2] | Insensitivity, tembotrione, Trait fitness [2] | Insensitivity, topramezone, ON × OFF [2] | Insensitivity, topramezone, Trait Fitness [2] | OFF rate ratio [1, 4] | ON × OFF ([2]; Megatable 3, shuffled variants) | ON × OFF × kcat ([2]; Megatable 3, shuffled variants) | ON × OFF [2, 4] | ON × OFF × kcat [2, 4] | also measured
B1 | 0.01 | 0.31 | 0.28 | 0.04 | 0.045 | 0.0005 | 0.015 | 0.062 | 2.1 | 0.042 | 1.45 | 0.007 | 0.26 | 0.002 | 0.077 | – | – | – | – | – | OFF ratio (parameters with tembotrione) ([1]; tembotrione): 0.03; OFF rate ratio ([1]; mesotrione): 0.31; time span to reach the steady state (dissociation from inhibitor) ([1]; mesotrione, enzyme 240 nM): 280 s; Insensitivity parameter, ON × OFF [2, 3]: 0.0096; Insensitivity parameter, ON × OFF ([2]; Mesotrione, Table 6): 0.0437; Insensitivity parameter, ON × OFF ([2]; Sulcotrione): 0.0872; ON × OFF × kcat, Value ([2]; tembotrione): 1.07; ON × OFF × kcat, Fold vs wt ([2]; tembotrione): 1.00; ON × OFF, fold vs wt ([2]; tembotrione): 1.00; ON × OFF (parameters with tembotrione) ([2]; tembotrione): 0.0051; Insensitivity parameter, ON × OFF ([2]; Tembotrione): 0.0051; Insensitivity parameter, ON × OFF ([2]; Topramezon): 0.0154; Fitness Fold vs Zm wt ([2]; mesotrione): 1; fold less sensitive to mesotrione than soybean HPPD ([2]; mesotrione): 40 fold; Insensitivity parameter, ON × OFF ([2]; mesotrione, Table 2): 0.06
B2 | 0.20 | 0.89 | 0.71 | 0.22 | 0.25 | 0.11 | 3.30 | 0.59 | 18.1 | 0.38 | 11.8 | 0.17 | 5.36 | 0.13 | 3.99 | 0.116 | 0.086 | 3.45 | 0.086 | 3.45 | OFF ratio (parameters with tembotrione) ([1]; tembotrione): 0.21; OFF rate ratio ([1]; mesotrione): 0.83; Insensitivity parameter, ON × OFF [2, 3]: 0.24; Insensitivity parameter, ON × OFF ([2]; Mesotrione, Table 6): 0.45; Insensitivity parameter, ON × OFF ([2]; Sulcotrione): 0.56; ON × OFF × kcat, Value ([2]; tembotrione): 5.25; ON × OFF × kcat, Fold vs wt ([2]; tembotrione): 4.90; ON × OFF, fold vs wt ([2]; tembotrione): 30.0; ON × OFF (parameters with tembotrione) ([2]; tembotrione): 0.15; Insensitivity parameter, ON × OFF ([2]; Tembotrione): 0.19; Insensitivity parameter, ON × OFF ([2]; Topramezon): 0.26; Fitness Fold vs Zm wt ([2]; mesotrione): 7.9; Insensitivity parameter, ON × OFF ([2]; mesotrione, Table 2): 0.56; Insensitivity ON × OFF, Fold vs wt ([2]; mesotrione, vs maize wild type): 9.11
B3 | 0.42 | 1.00 | 1.14 | 0.47 | 0.57 | 0.32 | 6.55 | 0.71 | 14.6 | 0.89 | 18.2 | 0.36 | 7.32 | 0.46 | 9.31 | 0.320 | 0.238 | 7.65 | 0.238 | 7.65 | –
B4 | 0.38 | 1.00 | 1.11 | 0.28 | 0.53 | 0.29 | 3.98 | 0.73 | 25.6 | 0.83 | 11.5 | 0.20 | 7.09 | 0.43 | 5.91 | 0.280 | 0.201 | 14.24 | 0.201 | 14.24 | –
